Here are results for three molecules from US20040047873A1 (published 2004).

B1: murine CD40-human Fc fusion protein (Fc fusion, mouse, UniProt P27512 20-193, looked up)
chain: LGQCVTCSDKQYLHDGQCCDLCQPGSRLTSHCTALEKTQCHPCDSGEFSAQWNREIRCHQHRHCEPNQGLRVKKEGTAESDTVCTCKEGQHCTSKDCEACAQHTPCIPGFGVMEMATETTDTVCHPCPVGFFSNQSSLFEKCYPWTSCEDKNLEVLQKGTSQTNVICGLKSRMR
notes: captured on immobilised anti-human Fc mAb in the BIAcore assay; also called CD40-Fc; not shown: human immunoglobulin Fc
B2: soluble trimeric CD154 (tCD154) (ligand, human;mouse, UniProt P35247 223-257, looked up)
chain: DVASLRQQVEALQGQVQHLQAAFSQYKKVELFPNGLDKVEEEVNLHEDFVFIKKLKRCNKGEGSLSLLNCEEMRRQFEDLVKDITLNKEEKKENSFEMQRGDEDPQIAAHVVSEANSNAASVLQWAKKGYYTMKSNLVMLENGKQLTVKREGLYYVYTQVTFCSNREPSSQRPFIVGLWLKPSSGSERILLKAANTHSSSQLCEQQSVHLGGVFELQAGASVFVNVTEASQVIHRVGFSSFGLLKL
notes: range 223-257;range 50-260; Expressed in CHO-K1 with the rat CD4 leader (secretion signal, left out here); Non-covalent homotrimer, apparent mass ~100 kDa by size exclusion; also called trimeric form of CD154

Assay [1] deals with T1, CD40 on murine splenic B cells (mouse, UniProt P27512 20-289).
T1 sequence (looked up): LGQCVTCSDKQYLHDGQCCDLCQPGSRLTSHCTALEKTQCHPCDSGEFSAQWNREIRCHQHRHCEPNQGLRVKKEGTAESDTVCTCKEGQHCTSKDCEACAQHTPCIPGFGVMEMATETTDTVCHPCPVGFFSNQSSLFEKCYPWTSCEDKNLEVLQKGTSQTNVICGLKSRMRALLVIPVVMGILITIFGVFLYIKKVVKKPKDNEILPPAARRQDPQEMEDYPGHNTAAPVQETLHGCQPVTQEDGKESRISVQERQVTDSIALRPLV
Briefly: cell-based or functional assay.

Assay [2] has as its target B1. Nature of the assay: BIAcore; CD40-Fc captured on anti-human Fc mAb, SP-D-CD154 injected at 31.3-250 nM; apparent affinity.
For assay [3], the target named is B1. Nature of the assay: BIAcore; CD40-Fc captured on anti-human Fc mAb, SP-D-CD154 injected. In general terms: In SPR one partner is held on a chip, and binding of the other changes the refractive index at the surface.
In assay [4] the target is B1. Briefly: BIAcore; dissociation half-time from captured CD40-Fc. Here is the method:
(§1) The lower activity of tCD154 when compared with SP-D-CD154 could be the result of its relatively low affinity for CD40. To address this question the inventors analysed the affinity and kinetics of the interaction between tCD154 or SP-D-CD154 and CD40 using the BIAcore™ biosensor, which measures protein-protein interaction in real time. A murine anti-human Fc mAb was covalently coupled to the dextran matrix, and either tCD154 or SPD-CD154 was then injected over this mAb in order to determine the level of non-specific binding. Specific binding was determined by first injecting murine CD40-human Fc fusion protein which bound to the immobilised anti-human Fc mAb, and then injecting (31.3-250 nM) tCD154 or SPD-CD154 (FIG. 6). Co-injection of the anti-CD154 mAb MR1 and tCD154 or SP-D-CD154 completely abolished the binding of tCD154 or SP-D-CD154 to CD40 (data not shown). […] SP-D-CD154 can potentially bind to twelve CD40 molecules, compared to three molecules with tCD154 [9], implying that the extent of receptor oligomerisation may influence the signals generated by CD40. Within the X-shaped SP-D molecule, the adjacent arms are separated by a distance of either ˜20 nm or ˜90 nm (FIG. 1A). Thus if all four arms of SP-D-CD154 engage cell surface-expressed CD40, two clusters are likely to form each with six closely associated CD40 molecules.

Assay [5] addresses B2. Briefly: BIAcore; CD40-Fc captured on anti-human Fc mAb, tCD154 injected. On the procedure:
as §1

The target in assay [6] is B2. Briefly: BIAcore; CD40-Fc captured on anti-human Fc mAb, tCD154 injected at 31.3-250 nM; apparent affinity. On the procedure:
as §1

As for “SP-D-CD154 dodecameric fusion protein between lung surfactant protein-D and CD154 (from UniProt P35247 1-257; P27548 50-260) (ligand)”, in assay [1], the fold increase in the level of CD86 on B cells against untreated cells (5 nM, 24 h) amounted to 3.6 fold; the fold increase in the level of ICAM-1 on B cells against untreated cells (5 nM, 24 h) worked out at 3.8 fold; the in vitro B cell proliferation assay is 2 µg/mL; the mean forward scatter of B cells (size and activation status) was 409. Moreover, the proliferation of murine splenic B cells ([3H] thymidine incorporation) in assay [1] was 8 fold. Besides, the Kd in assay [2] came out at 1.3 nM. The koff in assay [3] worked out at 0.00014 s⁻¹. Besides, the t1/2 in assay [4] amounted to 1.38 h.

The molecule B1 registered a koff in assay [5] of 0.00018 s⁻¹. In addition, the Kd in assay [6] turned out to be 2 nM.

As to B2, in assay [1], the “fold increase in the level of CD86 on B cells against untreated cells (5 nM, 24 h)” value is 1.4 fold and the “fold increase in the level of ICAM-1 on B cells against untreated cells (5 nM, 24 h)” value was 2 fold. This molecule also returned a t1/2 in assay [4] of around 1.07 h.

Broadly, the koff is a measure of how fast the partners let go of each other. Read a high koff as a short-lived complex.
